The values that follow come from US20210079557A1, “Methods and Compositions for Protein and Peptide Sequencing” (Google LLC, published 2021).

No end group written: not given here.

For data set [1], the target named is T1, bradykinin peptide-oligo conjugate (synthetic, also: C-terminal Cys conjugated to 3' end of DNA oligo tail).
T1 chain: RPPGFSPFRC
Kind of data set: no off-target hits. The following applies: tags: C-terminal Cys conjugated to DNA oligo tail tethered to flow cell (Genscript).

For data set [2], the target named is T2, argipressin peptide-oligo conjugate (synthetic, UniProt P01185 P01185:20-28, ends and bridges not checked; also: oligonucleotide conjugate, site not given here).
T2 chain: CYFQNCPRG
Briefly: barcode ligation sequencing on flow cell, over 100 hits on argipressin foundations. The following applies: tags: C-terminal DNA oligo tail tethered to flow cell (Genscript).

B1: argipressin BCS aptamer 2 (ssDNA)
DNA: GAGAGTTAGTCAGCAGGGATAACGAATTCGTATAGGCGCAGCATTTGATTCTGCTGCGTGCATACCCCTGTGTGTTATCCCTACTTGGCGTTCTTACCACCA
modifications: 5'-phosphate
As for B1, the binding result in data set [1] was “no binding”; in data set [2] it was “binds”.

B2: argipressin BCS aptamer 1 (ssDNA)
DNA: GAGAGTAAAGCCGATAGGATAACGAATTCGTATAGGCGCAGGATGGACTTGATAACCTTCTGCTGCGTGCCTTGATGTGCTTACTTGGCGTTCTTACCACCA
modifications: 5'-phosphate
In the case of B2, the binding result is listed as “no binding” in data set [1] and “binds” in data set [2].

B3: argipressin BCS aptamer 3 (ssDNA)
DNA: GAGAGTCCACGTGCACAGATAACGAATTCGTATAGGCGCAGCATACATCGGACATACATCCTGCGTGCATCCACCTTTGCATACTTGGCGTTCTTACCACCA
modifications: 5'-phosphate
In the case of B3, the binding result is “no binding” in data set [1] and “binds” in data set [2].
